T1: C. elegans LIN9-LIN52 heterodimeric Myb-binding domain complex (C. elegans, UniProt P30630 442-559; Q10120 75-139)
T1 construct: also called nematode LIN9-LIN52; ceLIN9; source: E. coli, co-expressed, purified (glutathione-sepharose, anion exchange, TEV cleavage, Superdex 200); not shown: GST, N-terminal, cleaved
T1 sequence (looked up) 1: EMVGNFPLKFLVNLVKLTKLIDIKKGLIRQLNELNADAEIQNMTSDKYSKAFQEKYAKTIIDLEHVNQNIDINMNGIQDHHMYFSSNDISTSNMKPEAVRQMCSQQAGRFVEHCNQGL
T1 sequence (looked up) 2: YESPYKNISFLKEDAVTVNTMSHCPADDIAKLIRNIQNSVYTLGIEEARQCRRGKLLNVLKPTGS


Assays:
[1] = molecular target: Drosophila LIN9-LIN52 heterodimeric Myb-binding domain complex (D. melanogaster); test: ITC; Myb fragment (~500 μM) in the syringe injected into LIN9-LIN52 heterodimer (~25–50 μM) at 25°C; 20 mM Tris, 150 mM NaCl, 1 mM beta mercaptoethanol, pH 8.0; MicroCal VP-ITC; triplicate
[2] = molecular target: T1, C. elegans LIN9-LIN52 heterodimeric …; test: as above; conditions: both partners purified

Kd [1] [µM] | Kd [2] [µM] | Binder
3 | 7 | VIDPKWARVACGKSRDQMFMEEQAYACLKNL (domain or fragment, D. melanogaster, UniProt P04197 602-632, looked up, Expressed from the pGEX vector and 'purified as described for the LIN9-LIN52 complex'; also called Drosophila Myb; dmMyb; source: E. coli, purified (glutathione-sepharose, anion exchange, TEV cleavage, Superdex 200); not shown: GST, N-terminal, cleaved) [Drosophila melanogaster Myb MuvB-binding domain (residues 602-632), wild type]
41 | 70 | VIDPAAARVACGKSRDQMFMEEQAYACLKNL (domain or fragment, D. melanogaster, UniProt P04197 602-632, looked up, Expressed from the pGEX vector and 'purified as described for the LIN9-LIN52 complex'; also called KW; source: E. coli, purified (glutathione-sepharose, anion exchange, TEV cleavage, Superdex 200); not shown: GST, N-terminal, cleaved)
